Laboratory results taken from US20150218257A1 (published 2015).

What was measured:
[1] = biological target: T1, HIV-1 YU2 gp160 expressed on the surface of transfected 293/293T cells (HIV-1 strain YU2, UniProt P35961 32-843); assay: binding to YU2 gp160 on the cell surface (FIG. 7)
T1 construct: whole, on cells

[2] = biological target: HIV-1 92RW020 Env on pseudovirus (HIV-1 strain 92RW020); assay: cell-based or functional assay
[3] = biological target: HIV-1 JR-FL(E168K) Env on pseudovirus (HIV-1 strain JR-FL); assay: cell-based or functional assay
[4] = biological target: HIV-1 ADA Env (gp160), on transfected 293 cells or on ADA pseudovirus (HIV-1 strain ADA); assay: cell-based or functional assay

Row | Binder | binding result [1] | IC50 (ug/ml), pseudovirus neutralisation, TZM-bl assay [2] | IC50 (ug/ml), pseudovirus neutralisation, TZM-bl assay [3] | IC50 (ug/ml), pseudovirus neutralisation, TZM-bl assay [4]
1 | 1443_C16 (PG16) human monoclonal antibody (antibody, V domains shown) VH: QEQLVESGGGVVQPGGSLRLSCLASGFTFHKYGMHWVRQAPGKGLEWVALISDDGMRKYHSDSMWGRVTISRDNSKNTLYLQFSSLKVEDTAMFFCAREAGGPIWHDDVKYYDFNDGYYNYHYMDVWGKGTTVTVSS VL: QSALTQPASVSGSPGQTITISCNGTSSDVGGFDSVSWYQQSPGKAPKVMVFDVSHRPSGISNRFSGSKSGNTASLTISGLHIEDEGDYFCSSLTDRSHRIFGGGTKVTVLG | binds | 0.09 µg/mL | 0.006 µg/mL | 0.004 µg/mL
2 | 1496_C09 (PG9) human monoclonal antibody (antibody, V domains shown) VH: QRLVESGGGVVQPGSSLRLSCAASGFDFSRQGMHWVRQAPGQGLEWVAFIKYDGSEKYHADSVWGRLSISRDNSKDTLYLQMNSLRVEDTATYFCVREAGGPDYRNGYNYYDFYDGYYNYHYMDVWGKGTTVTVSS VL: QSALTQPASVSGSPGQSITISCNGTSNDVGGYESVSWYQQHPGKAPKVVIYDVSKRPSGVSNRFSGSKSGNTASLTISGLQAEDEGDYYCKSLTSTRRRVFGTGTKLTVLG | – | 0.1 µg/mL | – | 0.2 µg/mL
